{"source": "patent US20150273076A1", "about": "“SP1 POLYPEPTIDES, MODIFIED SP1 POLYPEPTIDES AND USES THEREOF” (Fulcrum SP Ltd., priority 2006, published 2015)", "key": {"[1]": {"test_system": "proteinase K or alkalase", "assay": "Protease resistance by SDS PAGE", "format": "physicochemical", "conditions": "V8 protease, similar with trypsin, subtilysine", "experimental": "Protease Susceptibility Examination of SP1—SP1 (10 μg) prepared either in V8 protease digestion buffer (125 mM Tris-HCl, pH 6.8, 10% glycerol, 0.5% SDS) or standard buffer (20 mM Tris-HCl, pH 7.5, 1 mM EDTA, 50 mM NaCl), was boiled for 2 min or not boiled prior the addition of protease (Staphylococcus aureus V8 protease, trypsin, proteinase K, Sigma Chemicals Inc., Israel). Proteases were added to a final concentration of 50 μg/ml (SP1: protease equal to 1:20, w/w). The digestion was performed at 37° C. for 1 hr. The samples were then prepared in SDS sample buffer, and boiled or not before being subjected to 17% tricine-SDS-PAGE.\nSP1 is vulnerable to V8 protease or subtilysine (alcalase, Novo Industries) digestion when disassociated to its monomeric form (boiled in 0.5% SDS, or dissolved inclusion bodies). […] When the oligomer-protease mixture was further boiled in SDS sample buffer, only the SP1 monomer was observed and no peptide fragment was detected on the gel. When the same mixture was subjected to SDS-PAGE analysis without boiling, an intact complex was observed. […] Thus, whereas properly folded SP1 protein is protease resistance, unfolded protein, susceptible to protease, can be removed by protease and heat treatment (FIG. 5)."}, "[2]": {"assay": "SP1 stability following exposure to SDS and heating", "format": "physicochemical", "experimental": "The stability of the SP1 complex in the presence of SDS was examined by incubating purified SP1 with SDS at different molar ratios and at different temperatures. Dissociation of the SP1 complex to monomers required a molar ratio greater than 600:1 (SDS:SP1-monomer) accompanied by boiling before loading onto the gel."}, "[3]": {"assay": "Doxorubicin complex formation and release (ultrafiltration, HPLC, SDS PAGE fluorescence)", "format": "binding", "conditions": "reducing conditions (DTT or GSH)", "experimental": "Pure wild type SP1 or Cys2 SP1 mutant (1.5 mg/ml in 20 mM Sodium Phosphate buffered, pH=6.8) were incubated overnight at room temp, with DOX 1 mg/ml in the presence of DTT (10 mM), with gentle rolling. Binding reaction was stopped by adding hydrogen peroxide (0.01%), followed by ultra filtration (using 30 kD cutoff filter) and extensive wash until follow-through become colorless. Optical density was measured at both 278 and 477 nm using nanodrop spectrophotometer. Note the dramatic effect of the reducing agent on drug binding by the Cys2 SP1, compared to the absence of effect on the wild type SP1.\nFIG. 13 is a histogram illustrating the redox-dependent release of Doxorubicin by Cys2 SP1. Doxorubicin (DOX) was complexed within Cys2 SP1 as described in FIGS. 9-12 above. Release of the drug in the presence of 0, 2 and 20 mM GSH was measured by ultrafiltration and size exclusion HPLC analysis (detection at 228 and 475 nm);\nFIG. 14 is a histogram illustrating the effect of oxidation on DOX complex formation by Cys2 SP1. Doxorubicin (DOX) was reacted with Cys2 SP1 and wild type SP1 as described in FIGS. 9-13 above. Oxidized protein indicates exposure to excess of H2O2 prior to treatment with GSH. DOX complex formation was measured by ultrafiltration and size exclusion HPLC analysis (detection at 228 and 475 nm). […] 1=the retentate; 2=the flow through; and 3=a DOX standard 20 μg/ml.\nFIG. 17 is a photograph of a fluorescent PAGE analysis illustrating effective complex formation with DOX by Cys2 and SP1 fusion proteins. Recombinant wild type (lanes 1 and 2), Cys2 (lanes 3 and 4), and SP1 fusion proteins having additional N-terminal tumor specific peptide RGD (CRGD, SEQ ID NO:151; fusion protein is SEQ ID NO: 5)(lanes 5 and 6), or RGD in reverse order (RGDC, SEQ ID NO: 152; fusion protein is SEQ ID NO: 6)(lanes 7 and 8) were reacted with DOX to form complex as described in FIGS. 9-14 above, and then separated on SDS-PAGE with (lanes 2, 4, 6 and 8) or without (lanes 1, 3, 5 and 7) denaturation by boiling in LSB.\nUltrafiltration was used for the detection of complex formation with the water soluble ligands FA and DOX which have a distinctive absorption properties and can be determined by spectroscopic measurements. […] Several additional washing cycles remove all remaining free FA and DOX, and the ligand-SP1 complex remains in the retained fraction.\nSize exclusion chromatography is a common method for separation of molecules of different sizes under mild conditions and was employed to test FA and DOX complex formation under mild conditions. SP1 is eluted from the column after 7 min and is detected at 278 nm only, and free FA is eluted from the column (TSK G3000 SWXL, Tosohaas) after 16 min and is detected at 490 nm. The SP1-FA and SP1-DOX complexes also eluted at the same time but is detected also at 490 and 475 nm, respectively. DOX/SP1 ratio is determine from the standard curve obtained in solution.\nReverse phase HPLC (RP-HPLC) analysis separates between free DOX, PXT, and SP1. Both compounds bind to the resin (C-18) and are eluted at different acetonitrile concentrations, and detected at both 278 and 225 nm (SP1), 225 nm (PTX) and 477 nm (DOX).\nPyrogen free Cys2 SP1 variant (SEQ ID NO:3) in 20 mM (Na Phosphate buffer pH-6.7) final 2 mg/ml was diluted with DOX solution (Teva, Israel) 1:2 dilution final 1 mg/ml. Where indicated, GSH was added, and the solution is mixed overnight. Where indicated (oxidized), H2O2 is added to 0.1%, buffer added to 3× volume, and the solution is sonicated (3×22 sec. 1:1 pulse/pause at 3% amplitude 0.5 min. pause, using a Vibra-Cell 750 W sonicator)."}, "[4]": {"assay": "Repetitive iv injections of SP1: toxicity, liver histopathology", "format": "in vivo", "description": "35 mg/Kg SP1 or PBS control were injected iv (tail vein) to C57B1 mail mice on days 0, 9, 16, 23, 37 and 53 (6 and 5 animals in the SP1 and PBS groups, respectively). 55 days past the first injection the animals were sacrificed and their livers were subjected to histopathology analysis."}}, "data": [{"substance": "wild type: stress related SP1 protein from aspen (Populus tremula), recombinant, SEQ ID NO:1", "values": [{"measurement": "digestion of the intact oligomer by protease", "setting": "[1]", "result": "unable to digest the intact oligomer"}, {"measurement": "disassociation of the complex", "setting": "[2]; 1734-fold SDS (1%), temperatures of 80° C. or lower", "result": "did not cause significant disassociation of the complex"}, {"measurement": "molar ratio (SDS:SP1-monomer) required for dissociation of the complex to monomers", "setting": "[2]; accompanied by boiling before loading onto the gel", "result": "greater than 600"}, {"measurement": "state of SP1 on SDS-PAGE", "setting": "[2]; without boiling, SDS ratio of 3467 to 1", "result": "remained as a complex"}, {"measurement": "DOX complex formation", "setting": "[3]", "result": "much lower extent"}, {"measurement": "DOX complex formation", "setting": "[3]; listed as wild type SP1", "result": "no complexes are formed"}, {"measurement": "animals without any pathological response", "setting": "[4]; 35 mg/Kg iv on days 0, 9, 16, 23, 37 and 53, up to 55 days", "result": "Four out of six"}, {"measurement": "liver histopathology", "setting": "[4]; 55 days past the first injection", "result": "appeared normal"}, {"measurement": "animals died", "setting": "[4]; after 17 days, unknown reason", "result": "Two out of 6"}]}]}
